Results on 6 molecules are retold here after patent US20240398942A1 (CHIA TAI TIANQING PHARMACEUTICAL GROUP, published 2024).

For test [1], the target named is T1, human CD40-Fc protein (human, biotinylated (sites not given) in the capture ELISA and the benchmark blocking ELISA; not biotinylated in the ligand blocking ELISA).
T1 construct: also called biotinylated human CD40-Fc
Nature of the test: competitive ELISA: BM2 (selicrelumab) coated as competitor, antibody titrated and pre-mixed with biotinylated human CD40-Fc 0.23 nM, streptavidin-HRP, OD(450-630). How it is done:
The ability of the anti-CD40 antibody of the present application to block the binding of the benchmark to human CD40 was determined by competitive ELISA. Briefly, BM2 antibody was immobilized on a 96-well micro plates at 1 μg/mL in PBS, 100 µL/well, and incubated overnight at 4° C. The next day, the plate was washed once with a washing buffer before a blocking buffer (PBST containing 5% w/v of skim milk) was added. The plate was then incubated at 37° C. for 2 h for blocking. During the blocking of the 96-well plate, the anti-CD40 antibody of the present application or the benchmark was serially 5-fold diluted from 66.7 nM with a biotinylated human CD40-Fc protein (amino acid residues 21-193 of SEQ ID NO: 30 linked to the N terminus of amino acid residues 99-330 of SEQ ID NO: 28, dissolved in PBST containing 2.5% w/v of skim milk at a concentration of 0.23 nM) and then incubated at room temperature for 40 min. After the plate was washed 4 times, the antibody/biotinylated human CD40-Fc mixture was added at 100 μL/well to the plate coated with BM2. The plate was incubated at 37° C. for 40 min and again washed 4 times with the washing buffer. An HRP-labeled streptavidin was added at 100 μL/well, and the plate was incubated at 37° C. for 40 min to detect biotinylated human CD40-Fc immobilized on the plate. Again, the plate was washed 4 times with the washing buffer. Finally, TMB was added and the reaction was stopped by adding 1 M H₂SO₄. The absorbance was read on a microplate reader using the dual wavelength mode (TMB detection wavelength: 450 nm, reference wavelength: 630 nm). Curves of OD(450-630) values vs. antibody concentration were plotted. Data were analyzed using Graphpad Prism software, and IC₅₀ values were obtained.

The target in test [2] is T2, recombinant human CD40-his (Acro biosystems, Cat. No. CD0-H5228) (human, UniProt P25942 21-193).
T2 construct: Bought protein; also called human CD40-his protein; not shown: His tag
In words: SPR (Biacore T200), antibody captured on anti-human IgG chip, CD40-his as analyte, 1:1 fit. The text has this: (§1) Briefly, a goat anti-human IgG (GE Healthcare, Cat. No. BR100839, human antibody capture kit) was covalently linked to a CM5 chip (GE Healthcare, Cat. No. BR100530, carboxymethylated dextran-coated chip) via the primary amine group using a standard amine coupling kit supplied by Biacore (GE Healthcare, Pittsburgh, PA, USA). Unreacted portions on the biosensor surface were blocked with ethanolamine. Then, the anti-CD40 antibody of the present application and two benchmark antibodies (BM1 (dacetuzumab, Genentech Inc., also referred to CD40-BM1, prepared in-house; the heavy and light chain amino acid sequences are set forth in SEQ ID NOs: 40 and 41, respectively) and BM2 (selicrelumab, Abgenix Inc., also referred to CD40-BM2, prepared in-house; the heavy and light chain amino acid sequences are set forth in SEQ ID NOS: 42 and 43, respectively)) at a concentration of 66.67 nM were directed through the chip at a flow rate of 10 μL/min. Then, serially diluted recombinant human CD40-his (Acro biosystems, Cat. No. CD0-H5228, serially 2-fold diluted from 80 nM in HBS-EP⁺ buffer (supplied by Biacore)) or cynomolgus monkey CD40-his protein (Acro biosystems, Cat. No. CD0-C52H6, serially 2-fold diluted from 80 nM in HBS-EP⁺ buffer (supplied by Biacore)) was directed through the chip at a flow rate of 30 μL/min. The antigen-antibody binding kinetics was tracked for 2 min and the dissociation kinetics was tracked for 10 min. The association and dissociation curves were fitted to a 1:1 Langmuir binding model using BIAcore evaluation software. KD, Kₐ, and Kd values were determined.

Test [3] addresses T3, cynomolgus monkey CD40-his protein (Acro biosystems, Cat. No. CD0-C52H6) (cynomolgus monkey, UniProt G7PG38 21-193).
T3 construct: Bought protein; not shown: His tag
The description is as above.
Description: as §1

The target in test [4] is T1, human CD40-Fc protein. Nature of the test: capture ELISA: antibody captured on coated goat anti-human IgG F(ab')2, biotinylated human CD40-Fc 1.15 nM, streptavidin-HRP, OD(450-630). How it is done:
(§2) The plate was washed once with a washing buffer (PBS+0.05% v/v of Tween-20, PBST) and then blocked with 200 μL/well blocking buffer (PBST containing 5% w/v of skim milk) for 2 h at 37° C. The plate was washed 4 times, and the anti-CD40 antibody of the present application, BM1, BM2, and a negative control hIgG (human immunoglobulin for intravenous injection (pH 4), Hualan Biological Engineering Inc.) serially 5-fold diluted from 66.7 nM in a PBST containing 2.5% w/v of skim milk was added at 100 μL per well. The plate was incubated for 40 min at 37° C. and washed 4 times. A biotinylated human CD40-Fc protein (amino acid residues 21-193 of SEQ ID NO: 30 linked to the N terminus of amino acid residues 99-330 of SEQ ID NO: 28, dissolved in PBST containing 2.5% w/v of skim milk at a concentration of 1.15 nM) was added at 100 μL/well to a 96-well plate coated with the anti-CD40 antibody. The plate was incubated at 37° C. for 40 min and washed 4 times. An HRP-labeled streptavidin (diluted at 1:10000 in PBST, Jackson Immuno Research, Cat. No. 016-030-084) was added at 100 μL/well, and the plate was incubated at 37° C. for another 40 min. After the last wash, 100 μL/well of ELISA substrate TMB (Innoreagents, Cat. No. TMB-S-002) was added and the plate was incubated at room temperature. After 3-10 min, the reaction was stopped by adding 1 M H₂SO₄ at 50 µL/well, and the absorbance of each well was read on a microplate reader using the dual wavelength mode (TMB detection wavelength: 450 nm, reference wavelength: 630 nm). Curves of OD(450-630) values vs. antibody concentration were plotted. Data were analyzed using Graphpad Prism software, and EC₅₀ values were obtained.

Test [5] deals with T1, human CD40-Fc protein. The test is described as above. How it is done: as §2
The source holds these as a separate data set.

Read-outs that look alike come from different tables or passages of the source.

B1: humanized antibody huC1H1-V1 (antibody, human IgG2, kappa, V domains shown)
VH: EVQLVESGGGLVKPGGSLRLSCAASGFTFSNYGISWVRQAPGKGLEWVASISSGGDNTYYPDNVKGRFTISRDNAKNSLYLQMNSLRAEDTAVYYCARAGEKAMDYWGQGTLVTVSS
VL: EIVLTQSPATLSLSPGERATLSCRASQTINNNLHWYQQKPGQAPRLLIKYASQSISGIPARFSGSGSGTDFTLTISSLEPEDFAVYFCQQFSSWPLTFGGGTKVEIKR
notes: Human IgG2 / kappa
Turning to B1, the IC50 with human CD40-Fc protein [1] was 513 pM. In addition, in test [2], the Kd stood at 1100 pM, the koff turned out to be 0.00248 s⁻¹ and the kon was found to be 2.25e+06 M⁻¹ s⁻¹. In test [3], this molecule displayed a Kd of 1110 pM, a koff of 0.00237 s⁻¹ and a kon of 2.14e+06 M⁻¹ s⁻¹.

B2: humanized antibody huC1H1-V2 (antibody, human IgG2, kappa, V domains shown)
VH: EVQLVESGGGLVKPGGSLRLSCAASGFTFSNYGISWVRQAPGKGLEWVSSISSGGDNTYYPDNVKGRFTISRDNAKNSLYLQMNSLRAEDTAVYYCARAGEKAMDYWGQGTLVTVSS
VL: EIVLTQSPATLSLSPGERATLSCRASQTINNNLHWYQQKPGQAPRLLIKYASQSISGIPARFSGSGSGTDFTLTISSLEPEDFAVYFCQQFSSWPLTFGGGTKVEIKR
notes: Human IgG2 / kappa
With B2, in the test with human CD40-Fc protein [1], the IC50 is 318 pM. In test [2], the Kd was 1170 pM, the koff is 0.0027 s⁻¹ and the kon is 2.31e+06 M⁻¹ s⁻¹. Further, in test [3], binding was characterised by a dissociation constant (Kd) of 1070 pM, the koff worked out at 0.00274 s⁻¹ and the kon came out at 2.56e+06 M⁻¹ s⁻¹.

B3: BM1 (dacetuzumab) (antibody, human IgG1, kappa, V domains shown)
VH: EVQLVESGGGLVQPGGSLRLSCAASGYSFTGYYIHWVRQAPGKGLEWVARVIPNAGGTSYNQKFKGRFTLSVDNSKNTAYLQMNSLRAEDTAVYYCAREGIYWWGQGTLVTVSS
VL: DIQMTQSPSSLSASVGDRVTITCRSSQSLVHSNGNTFLHWYQQKPGKAPKLLIYTVSNRFSGVPSRFSGSGSGTDFTLTISSLQPEDFATYFCSQTTHVPWTFGQGTKVEIKR
notes: Benchmark antibody, prepared in-house; also called CD40-BM1; benchmark
B3 returned an IC50 in the test with human CD40-Fc protein [1] of 46.1 pM. Besides, the values for the Kd in test [2] and in test [3] were 9420 pM and 9680 pM, respectively. Further, the results for the koff in test [2] and in test [3] were 0.00756 s⁻¹ and 0.0074 s⁻¹, respectively. In addition, the kon amounted to 803000 M⁻¹ s⁻¹ in test [2] and 764000 M⁻¹ s⁻¹ in test [3]. Besides, the EC50 in the test with human CD40-Fc protein [4] came out at 463 pM; with human CD40-Fc protein [5], 590 pM.

B4: mouse anti-CD40 monoclonal antibody C1H1 (antibody, V domains shown)
VH: EVKLVESGGGLVKPGASLKLSCAASGFTFSNYGISWVRQTSDKRLEWVASISSGGDNTYYPDNVKGRFTISRENAKNTLYLQMSSLKSEDTALYYCARAGEKAMDYWGQGTSVTVSS
VL: DIVLTQSPVTLSVTPGDSVSLSCRASQTINNNLHWYQQKSHESPRLLIKYASQSISGIPSRFSGSGSGTDFTLSINSVETEDFGIYFCQQFSSWPLTFGAGTKLELK
notes: Parent mouse antibody from a hybridoma; the mouse constant regions are not; also called Mouse C1H1
Regarding B4, the IC50 with human CD40-Fc protein [1] was determined as 125 pM. This molecule gave an EC50 with human CD40-Fc protein [5] of 203 pM.

B5: chimeric antibody C1H1 (antibody, human IgG1, kappa, V domains shown)
VH: EVKLVESGGGLVKPGASLKLSCAASGFTFSNYGISWVRQTSDKRLEWVASISSGGDNTYYPDNVKGRFTISRENAKNTLYLQMSSLKSEDTALYYCARAGEKAMDYWGQGTSVTVSS
VL: DIVLTQSPVTLSVTPGDSVSLSCRASQTINNNLHWYQQKSHESPRLLIKYASQSISGIPSRFSGSGSGTDFTLSINSVETEDFGIYFCQQFSSWPLTFGAGTKLELKR
notes: also called Chimeric C1H1
In the test with human CD40-Fc protein [1], B5 returned an IC50 of 160 pM. Also, in test [2], the dissociation constant (Kd) was found to be 884 pM, the koff was 0.00222 s⁻¹ and the kon worked out at 2.51e+06 M⁻¹ s⁻¹. In test [3], this molecule yielded a Kd of 846 pM, a koff of 0.00215 s⁻¹ and a kon of 2.54e+06 M⁻¹ s⁻¹. The molecule also registered an EC50 with human CD40-Fc protein [5] of 343 pM.

B6: BM2 (selicrelumab) (antibody, human IgG2, kappa, V domains shown)
VH: not shown
VL: DIQMTQSPSSVSASVGDRVTITCRASQGIYSWLAWYQQKPGKAPNLLIYTASTLQSGVPSRFSGSGSGTDFTLTISSLQPEDFATYYCQQANIFPLTFGGGTKVEIKR
notes: Benchmark antibody, prepared in-house; also called CD40-BM2; benchmark
Turning to B6, in test [2], the Kd stood at 7840 pM, the koff came out at 0.00162 s⁻¹ and the kon is 206000 M⁻¹ s⁻¹. In test [3], the Kd amounted to 8730 pM, the koff was determined as 0.00151 s⁻¹ and the kon was found to be 173000 M⁻¹ s⁻¹. In addition, the response in the test with human CD40-Fc protein [4] was half-maximal at 909 pM (EC50). The molecule also had a 50% effective concentration (EC50) in the test with human CD40-Fc protein [5] of 1340 pM.
